“And” between values parts separate entries of the source, which are not always exact repeats. Identical values can stand only once.
Columns and labels:
[1] = target: T1, HER2 (Homo sapiens, UniProt P04626); assay: Biacore SPR binding to immobilised HER2; conditions: immobilised HER2
Method in brief: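 HER2 amine-coupled on CM5 or CM3 chips, Biacore T200. Free antibody (typically 5-0.6 μg/ml) and conjugates (20-2.5 μg/ml) injected 160 s at 30 μl/min, 900 s dissociation (3600 s at highest concentration); regeneration with 8M MgCl2. Kinetics compared with unmodified scFv.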

[2] = Plasma pharmacokinetics in BALB/c mice (ELISA, total antibody and total ADC); assay type: in vivo, mouse; conditions: for Bioavailability (blood exposure, AUC, 24 hrs) / Elimination half-life (hrs) Total Antibody: mice; for Bioavailability (blood exposure, AUC, 24 hrs): mean AUC in anti-payload and anti-protein detection; for Elimination half-life (hrs) Total Antibody: plasma ELISA
Experimental: Mice. Female BALB/c mice (BALB/cAnNCrl, Charles River) were eight weeks old with body weights ranging from 15.9 to 21.9 grams at the beginning of the study. The animals were fed ad libitum water (reverse osmosis, 1 ppm Cl) and NIH 31 Modified and Irradiated Lab Diet® consisting of 18.0% crude protein, 5.0% crude fat, and 5.0% crude fiber. The mice were housed on irradiated Enrich-o'cobs™ Laboratory Animal Bedding in static microisolators on a 12-hour light cycle at 20-22° C. (68-72° F.) and at 40-60% humidity. Charles River Discovery Services North Carolina (CR Discovery Services, who carried out this contracted R&D) specifically complies with the recommendations of the Guide for Care and Use of Laboratory Animals with respect to restraint, husbandry, surgical procedures, feed and fluid regulation, and veterinary care. The Animal Care and Use program at CR Discovery Services is accredited by the Association for Assessment and Accreditation of Laboratory Animal Care International, which assures compliance with accepted standards for the care and use of laboratory animals.
(§1) Therapeutic (test) Agents. All test agents were supplied as ready-to-dose dosing solutions. All dosing solutions were stored at 4° C. until dosed. All treatments were administered in a dosing volume scaled to the body weights of the individual animals to obtain the dosing concentration described in the treatment tables.
Treatment (mice). On Day 1 of the study, mice were divided into groups each consisting of eighteen mice (per test agent being evaluated), and dosing was initiated according to the treatment plan summarized in the treatment tables. All doses were administered intravenously (i.v.) by tail vein injection as described in the tables below.
Endpoint. The study endpoint occurred after the last sampling point, typically on Day 2 or 4, twenty-four or seventy-two hours post dose.
Sampling (mice). Blood (full blood volume) was collected from three animals per treatment group per timepoint. Samples were collected from all animals via terminal cardiac puncture under isoflurane anesthesia. Once collected, blood samples were collected into collection tubes containing lithium heparin or K2EDTA as anticoagulants and were processed for plasma at each timepoint. Each plasma sample was stored at −80° C. until used for analysis.
(§2) Quantification of test agents in plasma. An ELISA was carried out as described in Example 31 The detecting antibodies were (a) Anti-T7 tag to detect the scFv (total antibody), (b) Anti-Human Fab-specific to detect trastuzumab (total antibody), (c) Anti-MMAF (Concortis), Anti-MMAE (Concortis), anti-DM1
(§3) (Concortis) and anti-cemadotin (in-house mouse monoclonal antibody, Example 33 that also recognised P5C5 and AuristatinF), total ADC. The reference test agents were used to construct a calibration curve for which the plasma samples were compared to, in order to quantify the amount present. The concentration was plotted against time (average of three animals with standard error) and fitted to a 2-phase decay curve using GraphPad Prism to derive kinetic parameters.

[3] = Aggregation by HPLC size-exclusion chromatography; assay type: physicochemical
Experimental: Aggregation can be tested by analytical size-exclusion HPLC measuring the percentage of high molecular weight material compared to the conjugate eluting at a retention time characteristic of a monomeric conjugate.
Typically, 20 μg of protein was injected for analytical runs and 300 μg for semi-preparative runs.

[4] = target: T1, HER2; conditions: by mutagenesis, Schier R et al (1996); cited from earlier work
[5] = Plasma pharmacokinetics in Sprague-Dawley rats (ELISA); assay type: in vivo, rat
Experimental: Rats. Male Sprague-Dawley rats (sourced from Charles River, UK) were group housed in a temperature and light controlled facility on a 12 hour light/dark cycle with food and water available ad libitum. Rats selected for study inclusion were individually housed until completion of the study. All animals were subjected to health monitoring in accordance with the guidelines by the onsite home office registered veterinarian. All animal experimentation was covered under the UK Animals (Scientific Procedures) Act (1986) and EU directive 86/609/EEC. All such work was monitored by regular inspections of procedures and facilities by the on-site Veterinarian and UK Home Office inspectors. The study design required the surgical implantation of catheters into the jugular of male Sprague-Dawley rats.
Rats were anaesthetised using the inhalation anaesthetic isoflurane and placed in dorsal recumbency. The right jugular vein was exposed and a loose ligature was placed caudally and the cranial end of vein was ligated. A small incision was made between the ligatures into which the catheter (polyethylene 50 tubing) was inserted. The catheter was secured in place by tying the loose ligature around the catheterised vessel. A small incision was made in the scapular region to serve as the exit site of the catheter. The catheter was subcutaneously tunneled and exteriorised through the scapular incision. Patency of the catheter was tested, and the catheter was filled with a locking solution (heparinised saline) and sealed with a stainless steel pin. Post-operative monitoring of animals was performed according to Home Office good practice guidelines. Intravenous dosing was via the tail vein.
as §1
Treatment (rats). On Day 1 of the study, rats were divided into groups of three animals (per test agent being evaluated), and dosing was initiated according to the treatment plan summarized in the tables below
Sampling (rats). Serial venous blood samples (approx. 0.1-0.2 ml) were collected via the exteriorised jugular vein catheter at specified time points (0.5 to 72 hrs post dosing) and placed in heparinised containers. Prior to taking the blood samples the catheter was evacuated of heparinised saline to prevent dilution of the blood sample. Following each blood sample the volume of blood removed is replaced with an equal volume of heparinised saline via the catheter and sealed. Blood samples were centrifuged (5 minutes, 16,100 g, 4° C.) to separate the plasma. Plasma samples were transferred to fresh containers and promptly frozen and stored at −20° C. until used for analysis.
as §2, §3

B1: scFv (TCT1067) (protein)
scFv: SGSGGSGQVQLVQSGAEVKKPGESLKISCKGSGYSFTSYWIAWVRQMPGKGLEYMGLIYPGDSDTKYSPSFQGQVTISVDKSVSTAYLQWSSLKPSDSAVYFCARHDVGYCTDRTCAAWPEWLGVWGQGTLVTVSSGGGGSGGGGSGGGGSQSVLTQPPSVSAAPGQKVTISCSGSSSNIGNNYVSWYQQLPGTAPKLLIYGHTNRPAGVPDRFSGSKSGTSASLAISGFRSEDEADYYCASWDYTLSGWVFGGGTKLTVLMASMTGGQQMG
- association rate [1]: 3.9e+06 M⁻¹ s⁻¹ and 3.88e+06 M⁻¹ s⁻¹
- dissociation rate [1]: 3.7e-05 s⁻¹ and 3.69e-05 s⁻¹
- Bioavailability (blood exposure, AUC, 24 hrs) ([2]; 1 × 2 mg/kg, Table 61 (AF-C5)): 8.13 μghr/ml
- Bioavailability (blood exposure, AUC, 24 hrs) ([2]; 1 × 2 mg/kg, Table 62): 8.13 μghr/ml
- Elimination half-life (hrs) Total Antibody ([2]; 1 × 2 mg/kg, Table 61 (AF-C5)): 1.05 h
- Elimination half-life (hrs) Total Antibody ([2]; 1 × 2 mg/kg, Table 62): 1.05 h
- Bioavailability (blood exposure, AUC, 24 hrs) ([2]; 1 × 5 mg/kg, Table 57): 8.12 μghr/ml
- Elimination half-life (hrs) Total Antibody ([2]; 1 × 5 mg/kg, Table 57): 1.05 h
- plasma clearance (in words) ([2]; single i.v. dose, female BALB/c mice (5 mg/kg MMAF-C5, P5C5; 2 mg/kg AF-C5, DM1)): clears rapidly
- % aggregate by HPLC-SEC (FIG. 71) ([3]; scFv conjugation reaction with 5 molar equivalents of Auristatin F-C5 NHS (reactions 1 and 4)): 0%
- % aggregate by HPLC-SEC (FIG. 71) ([3]; scFv conjugation reaction with 10 molar equivalents of Auristatin F-C5 NHS (reactions 2 and 5)): 0%
- % aggregate by HPLC-SEC (FIG. 71) ([3]; scFv conjugation reaction with 25 molar equivalents of Auristatin F-C5 NHS (reactions 3 and 6)): 0%
- increase of binding affinity over the anti-HER2 scFv of Example 27 [4]: over 1000 fold
- Bioavailability (blood exposure, AUC, 24 hrs) ([5]; rats, 1 × 4 mg/kg, mean AUC in anti-payload and anti-protein detection, Table 64): 20.46 μghr/ml
- Elimination half-life (hrs) Total Antibody ([5]; rats, 1 × 4 mg/kg, plasma ELISA, Table 64): 0.8 h
- plasma clearance (in words) ([5]; single i.v. dose 4 mg/kg, male Sprague-Dawley rats): clears rapidly

Source: patent US11202837B2, “Biological materials and uses thereof” (Antikor Biopharma Limited, priority 2014, dated 2021)
